Results reported in PMC10194908 (PLOS ONE, 2023).

Assays:
[1] = target: T1, Recombinant NS1 from DENV-4-Dominica/814669/1981 (dengue virus serotype 4 …, UniProt P09866); test: immunoblot; settings: both partners purified
T1 construct: also called DENV-4 NS1
Target sequence in this assay (P09866 775-1126): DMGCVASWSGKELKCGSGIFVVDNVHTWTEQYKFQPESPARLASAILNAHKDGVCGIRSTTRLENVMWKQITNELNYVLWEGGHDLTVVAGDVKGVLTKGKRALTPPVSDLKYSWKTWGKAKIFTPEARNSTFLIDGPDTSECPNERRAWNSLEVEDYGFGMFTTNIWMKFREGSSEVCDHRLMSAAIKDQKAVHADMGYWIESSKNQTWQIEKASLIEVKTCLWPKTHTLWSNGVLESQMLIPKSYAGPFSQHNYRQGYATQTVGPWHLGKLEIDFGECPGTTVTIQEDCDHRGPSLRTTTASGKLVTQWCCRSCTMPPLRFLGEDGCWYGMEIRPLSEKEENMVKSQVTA

[2] = target: T2, Recombinant NS1 from DENV-3-Sri Lanka D3/H/IMTSSA-SRI/2000/1266 (dengue virus serotype 3 (Sri Lanka …, UniProt Q6YMS4)); test: immunoblot; settings: both partners purified
T2 construct: also called DENV-3 NS1

[3] = target: T1, Recombinant NS1 from …; test: BLI; settings: both partners purified
[4] = target: T2, Recombinant NS1 from DENV-3-Sri Lanka …; test: ELISA; settings: both partners purified
[5] = target: NS1 secreted from Vero cells infected with DENV-4-2641Y08 (Dengue virus type 4, strain 2641Y08 …, UniProt F8TEL4, strain); test: ELISA; settings: one partner purified
[6] = target: NS1 secreted from Vero cells infected with DENV-2-TSV01 (Dengue virus type 2, strain TSV01 …, UniProt Q91H74, strain); test: ELISA; settings: one partner purified
[7] = target: NS1 secreted from Vero cells infected with DENV-4-TVP360 (Dengue virus type 4, strain TVP360 …, UniProt D2KQW6, strain); test: ELISA; settings: one partner purified
[8] = target: NS1 secreted from Vero cells infected with DENV-3-VN32/96 (Dengue virus 3, strain VN32/96 (paper: …, strain)); test: ELISA; settings: one partner purified
[9] = target: NS1 secreted from Vero cells infected with DENV-3-CHD94-089 (Dengue virus 3, strain CHD94-089 …, strain); test: ELISA; settings: one partner purified
[10] = target: NS1 secreted from Vero cells infected with DENV-2-D2Y98P (Dengue virus type 2, strain D2Y98P …, UniProt F8TRW4, strain); test: ELISA; settings: one partner purified

Measured: binding result

T2 sequence (Q6YMS4 774-1125): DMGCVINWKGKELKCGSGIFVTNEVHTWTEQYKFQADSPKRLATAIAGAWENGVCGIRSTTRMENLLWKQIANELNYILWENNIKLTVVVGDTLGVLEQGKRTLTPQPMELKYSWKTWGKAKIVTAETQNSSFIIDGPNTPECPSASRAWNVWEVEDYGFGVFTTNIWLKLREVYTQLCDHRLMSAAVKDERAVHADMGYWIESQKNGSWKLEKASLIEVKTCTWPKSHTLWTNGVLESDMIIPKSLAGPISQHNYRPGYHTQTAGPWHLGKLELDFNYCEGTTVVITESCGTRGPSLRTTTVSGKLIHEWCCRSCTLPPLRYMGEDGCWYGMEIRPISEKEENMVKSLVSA

B1: D6 (antibody, V domains shown)
VH: EVQLVQSGGGLVQPGRSLRLSCAASGFTFQDYAMHWVRQAPGKGLEWVSGIGRDSGTIDYADSVKGRFTISRDNAKNSLYLQMNSLRAEDTALYYCAKISNGYRPDNWGQGTLVTVSS
VL: VLTQPPSVSVSPGQTARITCSGDVLAKRYARWFQQKPGQAPVVVIYKDSERPSGIPERLSGSSSGTTVTLTISGAQVEDEADYYCYCAADNNVVFGGGTKLTVL
notes: also called D6-HRP; HRP-D6
binds: [1]

B2: A2 (antibody, V domains shown)
VH: QVQLQESGGGVVQPGRSLRLFCAASGFTFSAFSTYAIHWVRQAPGKGLEWVAVISYDANNKYYADSVKGRFTISRDNFKSTLFLQMNSLRAEDTAVYYCARDRSDSGYDSYYYYYGMDVWGQGTTVTVSS
VL: QSVVTQPPSVSAAPGQKVTISCSGSSSNIGRNYVSWYQHLPGTAPKLLIYDNNKRRSGIPDRFSGSKSDTTATLGITGLQTVDEADYYCGSWDNSLSAYVFGTGTKVTV
notes: also called A2-HRP
binds: [2] | [3]

B3: D8 (antibody, V domains shown)
VH: QVQLQESGPGLVKPSETLPLTCTVSGGSISNNGFYWGWIRQPPGKGLEWIGNIYYRGSTYYNPSLNSRVTISVDTSKNQFSLQLNSVTAADTAVYYCARLGIQLWFAIDYWGQGTLVTVSS
VL: SVLTQPPAVSVALGQTVRITCQGDSLRSSYASWYQQKPGQAPVLIFYAKNNRPSGIPDRFSGSSSGNTASLTITGAQAEDEADYYCYSRDSSGNLWVFGGGTKLTVL
notes: also called D8-HRP; HRP-D8
not listed: [1] | [2] | [3]
binds: all other assays above
